{"source": "patent US8916149B2", "about": "“Preventing and treating sepsis” (University of Rochester, priority 2008, dated 2014)", "molecules": {"B1": {"name": "rhAPC: Recombinant human activated protein C obtained from Eli Lilly; FDA-approved drug for severe sepsis (protein)", "chain 1": "ANSFLEELRHSSLERECIEEICDFEEAKEIFQNVDDTLAFWSKHVDGDQCLVLPLEHPCASLCCGHGTCIDGIGSFSCDCRSGWEGRFCQREVSFLNCSLDNGGCTHYCLEEVGWRRCSCAPGYKLGDDLLQCHPAVKFPCGRPWKRMEKKRSHL", "chain 2": "LIDGKMTRRGDSPWQVVLLDSKKKLACGAVLIHPSWVLTAAHCMDESKKLLVRLGEYDLRRWEKWELDLDIKEVFVHPNYSKSTTDNDIALLHLAQPATLSQTIVPICLPDSGLAERELNQAGQETLVTGWGYHSSREKEAKRNRTFVLNFIKIPVVPHNECSEVMSNMVSENMLCAGILGDRQDACEGDSGGPMVASFHGTWFLVGLVSWGEGCGLLHNYGVYTKVSRYLDWIHGHIRDKEAPQKSWAP"}}, "key": {"human neutrophils [1]": {"tested_on": "human neutrophils", "assay": "Neutrophil adhesion assay on immobilized fibronectin (FN)", "type": "cell-based", "settings": "10 μg/ml protein", "procedure": "The adhesion assay was carried out essentially as described (Vorup-Jensen et al., PNAS 102:1614 (2005)). Cover slips were coated with FN in coating buffer (150 mM NaCl/20 mM Tris.HCl, pH 9.0) for over night at 4° C. and for 4 hours at room temperature. Residual binding sites were blocked by incubation of the wells with 0.05% (wt/vol) polyvinylpyrrolidone in PBS for 30 minutes at room temperature. […] The cover slips were aspirated, and washed with L15 medium. […] Cells (250 μl) were then immediately added, and further incubated at 37° C. for 15 minutes. Unbound cells were then washed with warm L15 medium. The bound cells were then fixed with formaldehyde. For each experimental condition from three independent donors, five random phase-contrast images were obtained, and the number of cells in each well was scored from printed micrographs."}, "human neutrophils [2]": {"tested_on": "human neutrophils", "assay": "Random migration of neutrophils on FN-coated cover glass (live-cell imaging)", "type": "cell-based", "procedure": "Delta T dishes were coated with human FN (50 μg/ml, BD Biosciences, San Jose, Calif.) for overnight at 4° C. and then for 4 h at room temperature. Plates were then rinsed with L-15 media. […] The cells were then added to FN-coated dishes in 1.5 ml of L-15 with 2 mg/ml of glucose. For neutrophil live cell staining, 2 μM Green Cell Tracker CMFDA (5-chloromethylfluorescein diacetate; Molecular Probes, Carlsbad, Calif.) was used. Temperature was maintained at 37° C. throughout the experiment using a FCS2 live-cell imaging chamber (Bioptechs, Butler, Pa.). Images were acquired for 30 to 60 minutes under a 10× objective lens using a Nikon TE-2000U inverted microscope. Phase contrast images were acquired every 5 seconds and fluorescence images every 30 seconds. Cell paths were traced using MetaVue™ imaging software (Molecular Devices Corporation, Downingtown, Pa.).\nRandom migration was investigated by adding fMLP or IL-8 to media at a final concentration of 10^−8M and analyzed by manually tracing the outline of each cell in selected frames (i.e., at 50 second intervals). The x and y coordinates of each cell were measured using ImageJ software and were corrected so that the starting position was x=0 and y=0.\nThe time-lapsed images of migrating neutrophils were taken under phase contrast microscopy. Each image was thresholded and binarized based on brightness to define the centroids of the neutrophils. The closest centroids between consecutive images were linked as a trajectory under the assumption that these centroids were made by the same neutrophil. The maximum distance between the closest centroids was also defined to preclude the artifacts due to cells moving into and out of the field of view."}, "human neutrophils [3]": {"tested_on": "human neutrophils", "assay": "Under-agarose migration assay (directional migration)", "type": "cell-based", "settings": "10 μg/ml rhAPC", "procedure": "Delta T dishes (Bioptechs, Butler, Pa.) were coated with fibronectin (FN). Plates were then rinsed with the appropriate media and allowed to air-dry. Molten agarose (Seakem GTG, FMC Bioproducts, Rockland, Me.) was prepared as described (Harler et al., J Immunol., 162:6792 (1999)). Two milliliters of the resulting gel was added to each dish and allowed to solidify at 4° C. for 5 min. Three wells that were 2 mm apart were prepared in the agarose using a template and a beveled punch that was coated with polymixin B. Care was taken to ensure that the plate bottom was not scratched. Punch sections were removed with an aspirator, and the gel was then equilibrated for one hour at 37° C. The wells were then aspirated and loaded with […] of one of the following: PBS (left well), a suspension containing approximately 200,000 cells (middle well), or a solution containing 5 pmol of fMLP (right well). […] The dishes were incubated for 60 min at 37° C., and then fixed with 10% buffered formalin. Counts were then made of the number of cells that had migrated 1 mm towards the right well (towards fMLP, directional migration), 0.5 mm towards the left and right wells (“straddle”), and 1 mm towards the left well (random migration). The experiments were repeated three times per condition."}, "human neutrophils [4]": {"tested_on": "human neutrophils", "assay": "Intracellular Ca2+ measurement (Fluo-4)", "type": "cell-based", "settings": "10 nM fMLP", "procedure": "1×10^7 cells/ml of human neutrophils were labeled with […] Fluo-4 AM (Molecular Probes, Eugene, Oreg.) at 37° C. for 30 minutes, then at room temperature for an additional 5 to 10 minutes. After washing twice, cells were resuspended to 4×10^6 cells/ml (6 ml) in F15 and incubated at RT for de-esterification. For measurements, cells (4×10^6) were spun down in a microtube (1 ml), resuspend in 1 ml of F15 at 37° C., transferred to a quartz cuvette containing a fluorometric stir bar and 1 ml of the same buffer at 37° C., and fluorescence signals were measured in the fluorometer."}, "α3β1": {"target": "T1, α3β1 (Homo sapiens, UniProt P05556+P26006)", "T1 construct": "purchased US Biological, Swampscott, Mass", "T1 sequence (P26006 33-872 limits assumed)": "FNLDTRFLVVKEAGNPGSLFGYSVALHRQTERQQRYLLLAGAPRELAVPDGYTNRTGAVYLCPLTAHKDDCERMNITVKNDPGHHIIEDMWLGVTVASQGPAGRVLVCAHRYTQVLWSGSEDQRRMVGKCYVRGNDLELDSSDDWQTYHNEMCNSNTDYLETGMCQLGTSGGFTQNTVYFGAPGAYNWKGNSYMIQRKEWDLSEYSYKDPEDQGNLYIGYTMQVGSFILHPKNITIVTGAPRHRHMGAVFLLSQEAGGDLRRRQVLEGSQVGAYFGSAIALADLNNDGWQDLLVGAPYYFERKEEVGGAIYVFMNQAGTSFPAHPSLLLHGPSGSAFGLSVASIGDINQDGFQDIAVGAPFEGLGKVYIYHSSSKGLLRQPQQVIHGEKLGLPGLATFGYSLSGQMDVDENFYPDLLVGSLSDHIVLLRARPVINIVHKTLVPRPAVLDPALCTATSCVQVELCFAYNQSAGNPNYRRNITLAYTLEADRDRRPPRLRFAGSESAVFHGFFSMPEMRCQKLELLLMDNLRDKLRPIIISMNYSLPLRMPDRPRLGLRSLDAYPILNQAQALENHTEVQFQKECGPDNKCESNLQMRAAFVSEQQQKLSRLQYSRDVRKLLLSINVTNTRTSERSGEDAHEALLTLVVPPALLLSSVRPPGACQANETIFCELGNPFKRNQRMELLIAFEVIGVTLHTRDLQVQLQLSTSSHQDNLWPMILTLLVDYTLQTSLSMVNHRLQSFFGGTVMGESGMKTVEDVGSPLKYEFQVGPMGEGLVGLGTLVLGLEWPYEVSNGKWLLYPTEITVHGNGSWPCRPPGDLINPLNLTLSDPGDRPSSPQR", "T1 sequence (P26006 876-1051 partner limits assumed)": "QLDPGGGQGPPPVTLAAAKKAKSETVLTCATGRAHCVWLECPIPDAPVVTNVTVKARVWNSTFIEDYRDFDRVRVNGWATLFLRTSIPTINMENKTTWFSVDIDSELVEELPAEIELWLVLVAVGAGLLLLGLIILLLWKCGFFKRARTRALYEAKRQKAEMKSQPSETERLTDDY", "T1 sequence (P05556 21-798)": "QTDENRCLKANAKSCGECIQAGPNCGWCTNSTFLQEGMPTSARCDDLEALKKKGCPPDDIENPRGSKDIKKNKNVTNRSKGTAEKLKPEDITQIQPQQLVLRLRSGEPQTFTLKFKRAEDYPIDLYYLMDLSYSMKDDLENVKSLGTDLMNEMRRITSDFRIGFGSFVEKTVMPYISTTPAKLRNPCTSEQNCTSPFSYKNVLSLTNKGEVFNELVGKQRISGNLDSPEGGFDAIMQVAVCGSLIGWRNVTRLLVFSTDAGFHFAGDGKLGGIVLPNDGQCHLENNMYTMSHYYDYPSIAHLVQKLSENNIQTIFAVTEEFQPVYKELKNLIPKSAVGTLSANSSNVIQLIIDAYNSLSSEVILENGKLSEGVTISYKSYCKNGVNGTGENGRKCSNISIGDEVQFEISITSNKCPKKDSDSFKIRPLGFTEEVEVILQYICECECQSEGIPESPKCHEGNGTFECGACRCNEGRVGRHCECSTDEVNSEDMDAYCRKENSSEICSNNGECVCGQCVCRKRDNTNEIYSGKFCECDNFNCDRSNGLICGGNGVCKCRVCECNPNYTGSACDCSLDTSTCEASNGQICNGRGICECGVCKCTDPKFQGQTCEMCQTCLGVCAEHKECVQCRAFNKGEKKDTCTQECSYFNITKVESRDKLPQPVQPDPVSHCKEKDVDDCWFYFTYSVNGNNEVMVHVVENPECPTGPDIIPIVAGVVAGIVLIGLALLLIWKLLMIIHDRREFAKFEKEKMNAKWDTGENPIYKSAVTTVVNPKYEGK", "assay": "Solid phase integrin ligand binding assay", "settings": "1 mM Mn2+, 1 mM Ca2+, 1 mM Mg2+", "procedure": "The solid phase binding assay was performed using purified soluble human α3β1, α5β1, and αVβ3 (US Biological, Swampscott, Mass.). Two (2) μg/ml of soluble integrins were added to microtiter wells for capture with immobilized monoclonal antibody against β1 or β3 subunits (mAb TS2/6 for β1 and mAb BB10 (Chemicon, Temecula, Calif.) for β3 integrins). […] After washing, bound APC was chromogenically detected by peroxidase-streptavidin conjugate anti-PC (Diapharma, West Chester, Ohio) or chromogenic substrate S-2366 (Diapharma, West Chester, Ohio). To minimize dissociation, all wash buffers contained 1 mM Mn^2+, and <15 minutes elapsed between the end of binding and beginning of color development. Functional blocking antibodies for integrins were from Chemicon (Temecula, Calif.).\nAmong the neutrophil integrins that recognize the RGD motif, α3β1, α5β1, and αVβ3 are key in regulating neutrophil chemotaxis (Yauch et al., Mol. Biol. Cell 9:2751 (1998); Burns et al., J. Immunol. 166:4644 (2001); Sixt et al., J. Biol. Chem. 276:18878 (2001)). To test whether APC can bind directly to the integrins, an ELISA-like solid phase receptor-binding assay was performed (FIG. 2E). Soluble α3β1, α5β1, and αVβ3 were captured onto microtiter wells using mAbs specific for β1 or β3."}, "LPS treated mice": {"tested_on": "LPS treated mice", "assay": "Neutrophil recruitment into airspace (BALF) after intranasal LPS", "type": "in vivo, mice (C57BL/6)", "settings": "10 μg/mouse i.v. 2 hours after LPS", "procedure": "Mice (C57BL/6, 6-8 weeks) were anesthetized with avertin and then intranasally administered 30 μg of LPS (Sigma-Aldrich, St. Louis, Mo.). […] Mice were sacrificed 4 hours later and bronchioalveolar lavage was harvested. Cells were fixed with 4% formaldehyde for 20 minutes. Cells were counted using microbeads (Polyscience, Niles, Ill.) by flow cytometry. Cells were stained with Gr-1 APC antibody (eBioscience, San Diego, Calif.) and collected by flow cytometry. Data were analyzed using FlowJo software (Tree Star, Ashland, Oreg.)."}, "neutrophil": {"tested_on": "neutrophil", "settings": "without any protein coatings; cited from earlier work"}, "[5]": {"tested_on": "lipopolysaccharide (LPS)-induced pulmonary inflammation", "settings": "intravenous administration; cited from earlier work"}}, "note": "Entries after “also recorded” stand apart in the source; their conditions may differ."}
{"molecule": "B1", "values": [{"measurement": "fMLP-induced adhesion of human neutrophils to immobilized FN", "setting": "human neutrophils [1]", "result": "significantly reduced; also recorded: abolished"}, {"measurement": "random migration of neutrophils on FN induced by fMLP", "setting": "human neutrophils [2]; 10 μg/ml protein, fMLP", "result": "dramatically reduced"}, {"measurement": "neutrophil migration on FN by IL-8", "setting": "human neutrophils [2]; rhAPC pre-treatment, IL-8", "result": "dramatically decreased"}, {"measurement": "directional migration of neutrophils on FN towards fMLP", "setting": "human neutrophils [3]", "result": "decreased"}, {"measurement": "increase in intracellular Ca2+ concentration by fMLP treatment", "setting": "human neutrophils [4]", "result": "had no effect"}, {"measurement": "direct binding to soluble α3β1", "setting": "α3β1", "result": "bound"}, {"measurement": "neutrophil recruitment in the BALF", "setting": "LPS treated mice", "result": "significantly reduced"}, {"measurement": "neutrophil migration through nitrocellulose micropore filter", "setting": "neutrophil", "result": "inhibited"}, {"measurement": "LPS-induced pulmonary inflammation", "setting": "[5]", "result": "reduce"}]}
